Here are results for six molecules from paper PMC10066039, “Bile salt hydrolases shape the bile acid landscape and restrict Clostridioides difficile growth in the murine gut” (Nature Microbiology, 2023).

What is called stoichiometry N is the number of molecules, sites or subunits per partner or assembly.

Targets include LaciBSHa; LingBSH; LreuBSH.
Common to all, as to test: crystal structure; crystals grown at 20 °C by sitting drop vapour diffusion (LgasBSHa with taurine and CDCA: hanging drop); data at 100 K; molecular replacement with PDB 2HEZ; homo-tetramer in the crystal structure
For series [1], the target named is LgasBSHb (Lactobacillus gasseri).
Series [2] deals with LjohBSHc (johnsonii (cluster johnsonii_1, Lactobacillaceae)).
Series [3] concerns the molecule itself.

For “LaciBSHa (from UniProt A0A805Z5R7 1-316) (enzyme)”, in the series with LaciBSHa, the stoichiometry N came out at 4.

Molecule “LgasBSHb (from UniProt A0A805Z5R7 1-316) (enzyme)” registered a stoichiometry N in series [1] of 4.

In the series with LingBSH, “LingBSH (from UniProt A0A805Z5R7 1-316) (enzyme)” had a stoichiometry N of 4.

Regarding “LjohBSHc (from UniProt A0A805Z5R7 1-316) (enzyme)”, the stoichiometry N in series [2] is 4.

As for “LreuBSH (from UniProt A0A805Z5R7 1-316) (enzyme)”, the stoichiometry N with LreuBSH is 4.

B1: LgasBSHa (enzyme, Lactobacillus gasseri, UniProt A0A805Z5R7 1-316, looked up)
chain: MCTGLRFTDDQGNLYFGRNLDVGQDYGEGVIITPRNYPLPYKFLDNTTTKKAVIGMGIVVDGYPSYFDCFNEDGLGIAGLNFPHFAKFSDGPIDGKINLASYEIMLWVTQNFTKVSDVKEALKNVNLVNEAINSSFAVAPLHWIISDKDEAIIVEVSKQYGMKVFDDKLGVLTNSPDFNWHLTNLGNYTGLDPHDATAQSWNGQKVAPWGVGTGSLGLPGDSIPADRFVKAAYLNVNYPTVKGEKANVAKFFNILKSVAMIKGSVVNKLGSDEYTVYTACYSAATKTYYCNFENDFELKTYKLDDETMNADKLITY
notes: bile salt hydrolase LgasBSHa (cluster gasseri_1), amplified from genomic DNA; selectivity loop GVG with V211 in its centre; catalytic cysteine at position 2; Crystallised with taurine and with taurine plus CDCA; also called taurine-preferring BSH; bile salt hydrolase; source: E. coli BL21-G, purified (HisTrap HP, Superdex 200)
As to B1, the “stoichiometry N” value in series [3] was determined as 4.
